Tests used:
Test in all cases: purified protein
Details in all cases: pH 7.5; 30.0 °C
[1] = tested on: C=C(O[C@@H]1C=C(C(=O)O)C=C[C@H]1O)C(=O)O; type: biochemical, Escherichia coli
[2] = tested on: C=C(O[C@H]1C=CC=C(C(=O)O)[C@@H]1O)C(=O)O
[3] = tested on: C=C(O[C@@H]1C=C(C(=O)O)C=C[C@H]1O)C(=O)O

Substance | Km [1] | Km [2] | kcat/Km [2] | Km [3]
(Escherichia coli K-12) | 240 µM | – | – | –
(Mycobacterium tuberculosis H37Rv) | – | 200 ± 30 µM | 4.4 ± 0.4 M⁻¹ s⁻¹ | 170 ± 16 µM
(Pseudomonas aeruginosa PAO1) | – | – | – | 41 ± 5 µM

— PMC12329711, “(Reverse) Evolution of a Promiscuous Isochorismate Pyruvate Lyase into an Efficient Chorismate Mutase” (Biochemistry, 2025)
